Results taken from patent US8076087B2, “Galectin sequences and compositions and methods utilizing same for treating or diagnosing arthritis and other chronic inflammatory diseases” (Medical Research Fund of Tel Aviv Souraskv Medical Center, priority 2002, dated 2011).

How the values were obtained:
[1] = system: synovial fluid cells from RA patients; experiment: Apoptosis induction, annexin V/PI flow cytometry, synovial fluid cells; format: cell-based, human; conditions: for total cell population in the apoptotic area: untreated control 19%
Protocol: (§1) The assay was performed by Phosphatidyl Serine Detection Kit (IOP-116F FITC-conjugated, IQ Products, The Netherlands) using the manufacturer instructions. Human fibroblast cells from OA patients, synovial fluid cells and PBLs from RA and other arthritic patients were incubated with increasing concentrations of galectin-8 variants 1 and 2 (50-2000 ng/ml). Specific binding of annexin V was performed by the incubation of cells for 20 minutes on ice in a binding calcium buffer containing a saturating concentration of annexin V-fluorescein isothiocyanate (FITC) and propdium iodide (PI). After incubation, the cells were pelleted, and analyzed in FACS analyzer (Beckton Dickinson, San Jose, Calif.). Annexin V^+/PI^+ cells were defined as necrotic, while annexin V^+/PI^− cells were defined as apoptotic. The percent of the apoptotic cells of the total cells was determined.

[2] = system: synovial fluid cells of arthritic patients; experiment: Flow cytometry of recombinant galectin-8 binding to synovial fluid cells (anti-galectin-8 immunostaining); format: cell-based, human; conditions: 1 μM added to synovial fluid cells
Protocol: (§2) Peripheral white blood cells and the total cell population from synovial fluids of arthritic patients were isolated (approximately 10^7 cells) on a Ficoll gradient (Robbins Scientific Corporation, Sunngvale, Calif., USA) and analyzed by flow cytometry using anti-galectin-8 polyclonal antibody (generated in rabbits according to prior art protocols).
(§3) Specific binding of anti-galectin-8 was performed by the incubation of cells for 20 minutes on ice in a binding calcium buffer containing a saturating concentration of anti-galectin-8. Thereafter, a second incubation with a goat-anti-rat conjugated to fluorescein isothiocyanate (FITC) was effected. After incubation, the cells were pelleted, and analyzed in FACS analyzer (Beckton Dickinson, San Jose, Calif.). Following the initial analysis, recombinant galectin-8 (as prepared in Example 1) (1 μM) was added to both the synovial fluid cells and the PBLs to verify that recombinant galectin-8 may be detected by immunostaining with anti-galectin-8 polyclonal antibody.

IL-1ra = IL-1ra levels in media of LPS-supplemented human synovial tissue / cell cultures, sandwich enzyme immunoassay; format: cell-based; conditions: for increase of IL-1ra levels: synovial tissue culture, vs LPS treated control; for increase of IL-1ra levels / IL-1ra levels in media: LPS 3 μg/ml, 48 hours; for IL-1ra levels in media: 50-2000 ng/ml
Protocol: (§4) Specimen Selection and Culture Conditions: Synovial tissues were obtained from patients undergoing total knee or hip replacement for osteoarthritis (OA). Within 2 hours of removal, synovial tissues were cut into small pieces, of a few millimeters in diameter. Synovial fibroblasts were cultured in 2 ml RPMI 1640 supplemented with 2 mM L-glutamine, 100 U/ml penicillin and 100 μg/ml streptomycin sulphate (Biological Industries).
(§5) Inflammatory cells and PBLs derived from joints of rheumatoid arthritic (RA) patients were cultured individually [RPMI-1640 (Sigma, Israel)]. The murine fibroblast line, NIH 3T3, was used as a control. The recombinant galectin-8 peptide (r-galectin-8) was added to the culture medium of the synovial fibroblasts at a concentration of 0.125 μM, 0.25 μM, 0.5 μM and 1 μM) together with lipopolysaccharide (LPS, 3 μg/ml). The recombinant galectin-8 peptide variants (r-galectin-8 variant 1 and r-galectin-8 variant 2) were added to all the culture mediums in the following concentrations: 50 ng/ml, 125 ng/ml, 250 ng/ml, 500 ng/ml, 750 ng/ml, 1 μg/ml and 2 μg/ml together with lipopolysaccharide (LPS, 3 μg/ml). Following 48 hours of incubation (37° C., 5% CO2), the measurement of IL-1β, TNF-α and IL-1ra production was performed in supernatants by quantitative sandwich enzyme immunoassay technique (R&D Systems, Inc., USA). Detection limits were 1 pg/ml to 14 pg/ml. IL-1ra production was tested with and without the addition of lipopolysaccharide (LPS, 3 μg/ml) to the culture media.

TNFα = TNFα levels in media of LPS-supplemented human synovial tissue / cell cultures, sandwich enzyme immunoassay; format: cell-based; conditions: for decrease of TNFα levels: synovial tissue culture; for decrease of TNFα levels / TNFα levels in media: LPS 3 μg/ml, 48 hours; for TNFα levels in media: 50-2000 ng/ml
Protocol: as §4, §5

[3] = system: PBLs of arthritic patients; experiment: Flow cytometry of recombinant galectin-8 binding to PBLs (anti-galectin-8 immunostaining); format: cell-based, human; conditions: 1 μM added to PBLs
Protocol: as §2, §3

IL-1β = IL-1β levels in media of LPS-supplemented human synovial tissue / cell cultures, sandwich enzyme immunoassay; format: cell-based; conditions: for decrease of IL-1β levels: synovial tissue culture; for decrease of IL-1β levels / IL-1β levels in media: LPS 3 μg/ml, 48 hours; for IL-1β levels in media: 50-2000 ng/ml
Protocol: as §4, §5

[4] = system: collagen induced arthritis (CIA); experiment: Collagen-induced arthritis (CIA) in DBA/1 mice, footpad thickness; format: in vivo; conditions: 100 μg per injection, IP / systemic, from disease onset every day for 11 days
Description: Animal treatment: 44 DBA/1 mice were induced with a joint inflammatory disease by two subcutaneous (s.c.) injections into the base of the tail of type II collagen three weeks apart. Joint inflammation, which appears several days after the last collagen injection, causes enhanced marked foot pad swelling, as well as swelling of other joints. The diameter of nonarthritic footpads is 1.5 to 1.7 mm. A footpad diameter of 1.9 to 2.0 mm was arbitrarily set as disease onset. […] Human galectin-8 protein and variants (100 μg per injection) as well as control injections were injected IP at disease onset and then every day for 11 days. The 44 mice were divided into 5 experimental groups as follows: Group 1 (negative control): systemic injection (starting at CIA onset) of PBS or PBS+30% glycerol (storing dilution solution of galectin proteins) (10 mice). Group 2 (positive control): systemic injection (starting at CIA onset) of anti-mouse TNFα mAb (cat. no. AMC-3012, Biosource Int. Inc. USA) adhering to the standard protocol (i.e., 100 μg antibody/mouse every day for 11 days) (6 mice). Group 3 (positive control): systemic injection of human galectin-8 protein according to the standard protocol (10 mice). Group 4: systemic injection of 100 μg per dose of human galectin-8 variant 1 according to the standard protocol (10 mice). Group 5: systemic injection of 100 μg per dose of human galectin-8 variant 2 (8 mice). The effect on footpad thickness was determined in a “blind” fashion, recording the electronic microcaliper measurements of the thickness of the joints, by picking the animals at random and recording their ears' signs following measurement. The mice were bled prior to disease induction, following disease onset and upon termination of the experiment (approximately day 11). The sera were stored and later analyzed for the presence of rheumatoid factor (RF) and cytokines. The mice were killed upon termination of the experiment and the joints removed from some of the animals for histopathological examination.

[5] = system: PBLs of arthritic patients; experiment: Apoptosis induction, annexin V/PI flow cytometry, PBLs; format: cell-based, human; conditions: lowest concentration 50 ng/ml
Protocol: as §1

[6] = system: human fibroblasts from OA patients; experiment: Apoptosis induction, annexin V/PI flow cytometry, OA fibroblasts; format: cell-based; conditions: for total cell population in the apoptotic area: 24 h, no-addition control 39.5%
Protocol: as §1

[7] = 0.25 μM, 0.5 μM and 1 μM, vs LPS treated control, dose dependent
[8] = 0.125 μM, vs LPS treated control
[9] = 0.25 μM, vs LPS treated control
[10] = human fibroblasts from OA patients

## COc1cccc2c1C(=O)c1c(O)c3c(c(O)c1C2=O)C[C@@](O)(C(=O)CO)C[C@@H]3O[C@H]1C[C@H](N)[C@H](O)[C@H](C)O1 [doxorubicine, reference compound]
[1]; 24 h, 150 μg/ml, positive control
  total cell population in the necrotic area: 80%

B1: galectin-8: recombinant human galectin-8 polypeptide, SEQ ID NO: 4, expressed in E. coli (protein)
chain: MLSLNNLQNIIYNPVIPYVGTIPDQLDPGTLIVICGHVPSDADRFQVDLQNGSSVKPRADVAFHFNPRFKRAGCIVCNTLINEKWGREEITYDTPFKREKSFEIVIMVLKDKFQVAVNGKHTLLYGHRIGPEKIDTLGIYGKVNIHSIGFSFSSDLQSTQASSLELTEISRENVPKSGTPQLSLPFAARLNTPMGPGRTVVVKGEVNANAKSFNVDLLAGKSKDIALHLNPRLNIKAFVRNSFLQESWGEEERNITSFPFSPGMYFEMIIYCDVREFKVAVNGVHSLEYKHRFKELSSIDTLEINGDIHLLEVRSW
[2]
  detection of added recombinant galectin-8 on cells by anti-galectin-8 immunostaining: detected
IL-1ra; 0.25 μM, 0.5 μM and 1 μM, vs untreated control, dose dependent
  IL-1ra production in the media of human synovial tissue: increased
IL-1ra; 0.25 μM
  increase of IL-1ra levels: approximately 4 fold
IL-1ra; 0.5 μM
  increase of IL-1ra levels: ~9 fold
IL-1ra; 1 μM
  increase of IL-1ra levels: ~22 fold
TNFα; [7]
  TNF-α release in the media of human synovial tissue: inhibited
TNFα; [8]
  decrease of TNFα levels: approximately 2%
TNFα; [9]
  decrease of TNFα levels: ~43%
TNFα; 0.5 μM, vs LPS treated control
  decrease of TNFα levels: ~74%
[3]
  detection of added recombinant galectin-8 on cells by anti-galectin-8 immunostaining: detected
IL-1β; [7]
  IL-1β release in the media of human synovial tissue: inhibited
IL-1β; [8]
  decrease of IL-1β levels: approximately 9%
IL-1β; [9]
  decrease of IL-1β levels: ~42%
IL-1β; 0.5 μM, vs LPS treated control
  decrease of IL-1β levels: ~67%
[4]
  CIA manifestations (footpad swelling): substantially reduced
[1]; 0.03 μM, 0.1 μM, 0.3 μM and 1 μM, dose dependent, vs serum free medium
  apoptotic effects in human synovial fluid cells: induced apoptotic effects
[1]; 24 h, 0.03 μM
  total cell population in the apoptotic area: 17%
[1]; 24 h, 0.1 μM
  total cell population in the apoptotic area: 20%
[1]; 24 h, 0.3 μM
  total cell population in the apoptotic area: 23%
[1]; 24 h, 1 μM, vs untreated control
  increase in apoptosis development: 3 fold
[1]; 24 h, 1 μM
  total cell population in the apoptotic area: 58%

B2: galectin-8 variant 2: recombinant galectin-8 variant 2 polypeptide, SEQ ID NO: 8, isoform found in synovial fluid cells of arthritic patients (protein)
chain: MMLSLNNLENIIYNPYIPYVGTIPDQLDPGTLIVICGHVPSDADRFQVDLQNGSSVKPRADVAFHFNPRFKRAGCIVCNTLINEKWGREEITYDTPFKREKSFEIVIMVLKDKFQDLQSTQASSLELTEISRENVPKSGTPQLSLPFAARLNTPMGPGRTVVVKVRSECKCQKMIIYCDVREFKVAVNGVHSLEYKHRFKELSSIDTLEINGDIHLLEVRSW
IL-1ra; PBLs of RA patients
  IL-1ra levels in media: significantly and dose-dependently increased
IL-1ra; [10]
  IL-1ra levels in media: significantly and dose-dependently increased
IL-1ra; synovial fluid cells (SFCs)
  IL-1ra levels in media: significantly and dose-dependently increased
TNFα; PBLs from RA patients
  TNFα levels in media: significantly and dose-dependently inhibited
TNFα; [10]
  TNFα levels in media: significantly and dose-dependently inhibited
TNFα; synovial fluid cells (SFCs)
  TNFα levels in media: significantly and dose-dependently inhibited
[5]
  maximal apoptotic effect: approximately 100%
[6]; 125 ng/ml
  total cell population in the apoptotic area: 52.2%
[6]; 250 ng/ml
  total cell population in the apoptotic area: 50.8%
[6]; 500 ng/ml
  total cell population in the apoptotic area: 62%
[6]; 750 ng/ml
  total cell population in the apoptotic area: 59%
[6]; 1000 ng/ml
  total cell population in the apoptotic area: 71.4%
[6]; 2000 ng/ml
  total cell population in the apoptotic area: 77.4%
[6]; increasing concentrations (50-2000 ng/ml)
  percentage of apoptotic cells: gradually increased
IL-1β; PBLs from RA patients
  IL-1β levels in media: significantly and dose-dependently inhibited
IL-1β; [10]
  IL-1β levels in media: significantly and dose-dependently inhibited
IL-1β; synovial fluid cells (SFCs)
  IL-1β levels in media: significantly and dose-dependently inhibited
[4]
  CIA manifestations (footpad swelling): did not influence
[1]; inflammatory cells from joints of arthritic patients, lowest concentration 50 ng/ml
  maximal apoptotic effect: approximately 100%
